Reference: publication doi:10.1101/2022.06.27.497840 (bioRxiv, 2022)

Target: T1, MBP-Mlh1/MBP-Mlh2 complex (Saccharomyces cerevisiae (SK1), UniProt P38920;Q07980)
T1 sequence 1: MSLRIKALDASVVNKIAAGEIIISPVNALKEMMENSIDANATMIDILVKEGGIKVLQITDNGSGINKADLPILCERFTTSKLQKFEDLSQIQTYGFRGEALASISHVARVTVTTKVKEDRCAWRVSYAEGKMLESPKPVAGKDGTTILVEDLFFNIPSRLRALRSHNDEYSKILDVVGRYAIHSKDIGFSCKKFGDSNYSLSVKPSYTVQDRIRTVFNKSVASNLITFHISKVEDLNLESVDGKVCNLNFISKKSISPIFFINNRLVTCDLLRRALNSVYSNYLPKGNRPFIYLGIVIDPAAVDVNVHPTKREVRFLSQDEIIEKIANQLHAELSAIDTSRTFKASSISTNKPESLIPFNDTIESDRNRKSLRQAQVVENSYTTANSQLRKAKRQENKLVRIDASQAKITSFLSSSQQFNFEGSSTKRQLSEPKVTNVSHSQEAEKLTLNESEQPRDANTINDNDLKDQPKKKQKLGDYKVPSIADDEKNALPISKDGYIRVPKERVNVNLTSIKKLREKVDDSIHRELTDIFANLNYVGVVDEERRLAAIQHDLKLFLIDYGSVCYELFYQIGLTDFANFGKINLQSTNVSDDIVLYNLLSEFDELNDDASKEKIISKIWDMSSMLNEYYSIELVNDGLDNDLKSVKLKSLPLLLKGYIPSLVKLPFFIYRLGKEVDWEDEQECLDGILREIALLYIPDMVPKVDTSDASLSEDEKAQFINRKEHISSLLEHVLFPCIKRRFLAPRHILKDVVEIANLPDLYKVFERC
T1 sequence 2: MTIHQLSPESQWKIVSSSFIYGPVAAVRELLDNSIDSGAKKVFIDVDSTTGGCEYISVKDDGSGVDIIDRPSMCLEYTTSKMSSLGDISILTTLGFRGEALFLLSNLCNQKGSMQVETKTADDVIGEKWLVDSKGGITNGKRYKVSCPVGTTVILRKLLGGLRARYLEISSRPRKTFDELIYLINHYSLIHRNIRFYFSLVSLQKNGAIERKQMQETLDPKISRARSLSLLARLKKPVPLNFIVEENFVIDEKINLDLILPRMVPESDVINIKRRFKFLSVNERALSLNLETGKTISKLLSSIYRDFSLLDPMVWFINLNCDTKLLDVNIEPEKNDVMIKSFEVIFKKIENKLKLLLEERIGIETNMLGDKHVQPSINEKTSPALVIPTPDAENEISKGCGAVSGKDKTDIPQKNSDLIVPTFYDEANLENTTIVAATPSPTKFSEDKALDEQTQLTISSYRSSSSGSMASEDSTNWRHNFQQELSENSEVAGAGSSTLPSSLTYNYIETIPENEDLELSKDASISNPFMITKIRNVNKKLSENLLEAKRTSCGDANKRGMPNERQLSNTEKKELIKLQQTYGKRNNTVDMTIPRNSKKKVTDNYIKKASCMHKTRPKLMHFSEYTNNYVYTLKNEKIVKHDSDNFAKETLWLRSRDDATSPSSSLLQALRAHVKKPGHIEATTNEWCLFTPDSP
Assay: cross-linking

binding result: binds
B1: Top3/Rmi1 complex (as used in MST, XL-MS and D-loop assays) (complex)
chain 1: MKVLCVAEKNSIAKAVSQILGGGRSTSRDSGYMYVKNYDFMFSGFPFARNGANCEVTMTSVAGHLTGIDFSHDSHGWGKCAIQELFDAPLNEIMNNNQKKIASNIKREARNADYLMIWTDCDREGEYIGWEIWQEAKRGNRLIQNDQVYRAVFSHLERQHILNAARNPSRLDMKSVHAVGTRIEIDLRAGVTFTRLLTETLRNKLRNQATMTKDGAKHRGGNKNDSQVVSYGTCQFPTLGFVVDRFERIRNFVPEEFWYIQLVVENKDNGGTTTFQWDRGHLFDRLSVLTFYETCIETAGNVAQVVDLKSKPTTKYRPLPLTTVELQKNCARYLRLNAKQSLDAAEKLYQKGFISYPRTETDTFPHAMDLKSLVEKQAQLDQLAAGGRTAWASYAASLLQPENTSNNNKFKFPRSGSHDDKAHPPIHPIVSLGPEANVSPVERRVYEYVARHFLACCSEDAKGQSMTLVLDWAVERFSASGLVVLERNFLDVYPWARWETTKQLPRLEMNALVDIAKAEMKAGTTAPPKPMTESELILLMDTNGIGTDATIAEHIDKIQVRNYVRSEKVGKETYLQPTTLGVSLVHGFEAIGLEDSFAKPFQRREMEQDLKKICEGHASKTDVVKDIVEKYRKYWHKTNACKNTLLQVYDRVKASM
chain 2: MSFSSILSQDITDDITPPAYSATLGSREQIVFRAYQNEPWLAGTASNLILDKKLVIVDRELLFQVLMVENITKSKLTQIDDIKTKLDPKKQKVDRLRSGAQGNGAKKYEVITQVDMEDDGNVADNNCAKENNSNNNSSAAKNKAVFKLTLQSKSGDVFFAINSTPISWSSCMLGSKIVILPGTVFNRGVFILKDSQVIFLGGINRVWNENRDQKFCDYLESKLQRDKQLVNGGSKKRKAND
